{"source": "paper PMC6838084", "key": {"[1]": {"molecular_target": "soluble C-terminal deletion mutant of human α2δ-1 with an N-terminal double strep II-tag (α2δ-1S NTST) (human)", "experiment": "ELISA; ELISA-style titration; α2δ-1S NTST (20 µg/ml) coated; TSP-4 11-1,505 nM; TBS pH 7.4 + 1 mM Ca2+; RT; apparent KD"}, "[2]": {"molecular_target": "α2 peptide chain of human α2δ-1 with an N-terminal double strep II-tag (α2 NTST) (human)", "experiment": "ELISA; ELISA-style ligand binding assay; α2δ-1S NTST (20 or 10 µg/ml) or α2 NTST (10 µg/ml) coated on 96-well plates; soluble TSP at a single concentration of 1,000 nM; TBS pH 7.4 with 1 mM Ca2+; 2 h at RT; detection with TSP-specific antibody/antiserum (Fig. 3A, 3C)"}, "[3]": {"molecular_target": "soluble C-terminal deletion mutant of human α2δ-1 with an N-terminal double strep II-tag (α2δ-1S NTST) (human)", "experiment": "ELISA; ELISA-style titration; α2δ-1S NTST (20 µg/ml) coated; TSP-4 11-1,505 nM; TBS pH 7.4 without Ca2+; RT; apparent KD"}}, "data": [{"substance": "thrombospondin-4 (TSP-4), recombinant full-length rat, N-terminal double strep II-tag (from UniProt P49744 43-980) (natural protein)", "values": [{"measurement": "Kd", "setting": "[1]", "value": 153, "unit": "nM"}, {"measurement": "fold change of the binding signal against α2δ-1S NTST", "setting": "[2]", "value": 2, "unit": "fold"}, {"measurement": "Kd", "setting": "[3]", "value": 198, "unit": "nM"}]}]}
